Results from patent US20120122239A1.

Columns and labels:
[1] = biological target: glycosylated human proBNP (HyTest, Turku, Finland; Catalog No. 8GOB2) (human); experiment: sandwich CMIA, capture 15F11, analyte 43.3 pM
[2] = biological target: human pro B-type natriuretic peptide (HyTest, Turku, Finland; Catalog No. 8PRO8) (human); experiment: sandwich CMIA, capture 15F11, analyte 43.3 pM
[3] = biological target: glycosylated human proBNP (HyTest, Turku, Finland; Catalog No. 8GOB2) (human); experiment: sandwich CMIA, capture 15C4, analyte 0.0 pM (blank)
[4] = biological target: human pro B-type natriuretic peptide (HyTest, Turku, Finland; Catalog No. 8PRO8) (human); experiment: as above
[5] = biological target: human NT-pro B-type natriuretic peptide (HyTest, Turku, Finland; Catalog No. 8NT1) (human); experiment: as above
Chain of human NT-pro B-type natriuretic peptide (HyTest, Turku, Finland; Catalog No. 8NT1) (human) (chain, as listed by the source): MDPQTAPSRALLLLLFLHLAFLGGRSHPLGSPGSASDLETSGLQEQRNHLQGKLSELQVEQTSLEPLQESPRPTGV

[6] = biological target: glycosylated human proBNP (HyTest, Turku, Finland; Catalog No. 8GOB2) (human); experiment: sandwich CMIA, capture 15C4, 86.6 pM, against human NT-proBNP
[7] = biological target: human pro B-type natriuretic peptide (HyTest, Turku, Finland; Catalog No. 8PRO8) (human); experiment: as above
[8] = biological target: glycosylated human proBNP (HyTest, Turku, Finland; Catalog No. 8GOB2) (human); experiment: sandwich CMIA, capture 15C4, analyte 288.7 pM
[9] = biological target: human pro B-type natriuretic peptide (HyTest, Turku, Finland; Catalog No. 8PRO8) (human); experiment: sandwich CMIA, capture 15C4, analyte 288.7 pM
[10] = biological target: human NT-pro B-type natriuretic peptide (HyTest, Turku, Finland; Catalog No. 8NT1) (human); experiment: sandwich CMIA, capture 15C4, analyte 288.7 pM
[11] = biological target: glycosylated human proBNP (HyTest, Turku, Finland; Catalog No. 8GOB2) (human); experiment: sandwich CMIA, capture 15C4, 577.4 pM, against human NT-proBNP
[12] = biological target: human pro B-type natriuretic peptide (HyTest, Turku, Finland; Catalog No. 8PRO8) (human); experiment: as above

Chain of glycosylated human proBNP (HyTest, Turku, Finland; Catalog No. 8GOB2) (human) (chain, as listed by the source): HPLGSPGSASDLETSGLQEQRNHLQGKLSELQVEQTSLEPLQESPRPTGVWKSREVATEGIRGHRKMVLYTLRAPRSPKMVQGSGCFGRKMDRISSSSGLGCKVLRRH

Analyte rlus [1]: 2320 rlus
Analyte rlus [2]: 1570 rlus
Analyte rlus [3]: 892 rlus
Analyte rlus [4]: 892 rlus
Analyte rlus [5]: 892 rlus
% Cross-reactivity [6]: 0.7%
% Cross-reactivity [7]: 16%
Analyte rlus [8]: 1220 rlus
Analyte rlus [9]: 12100 rlus
Analyte rlus [10]: 82800 rlus
% Cross-reactivity [11]: 0.3%
% Cross-reactivity [12]: 14%
Substance: anti-human NT-proBNP/anti-human proBNP labeled monoclonal antibody 29D12 (HyTest, Turku, Finland)
